Source: the supplement of paper PMC7877785
± gives the uncertainty stated by the source.

Experiment: self-splicing fitness, log relative to wild type (ln ratio); higher = more splicing; Tetrahymena group I intron in knt gene, E. coli kanamycin selection, DiMSum; sequences stand for … in CUCUCU…GGAGGGAAAAGUUAUCAGGCAUGCACCUGGUAGCUAGUCUUUAAACCAAUAGAUUGCAUCGGUUUAAAAGGCAAGACCGUCAAAUUGCGGGAAAGGGGUCAACAGCCGUUCAGUACCAAGUCUCAGGGGAAACUUUGAGAUGGCCUUGCAAAGGGUAUGGUAAUAAGCUGACGGACAUGGUCCUAACCACGCAGCCAAGUCCUAAGUCAACAGAUCUUCUGUUGAUAUGGAUGCAGUUCACAGACUAAAUGUCGGUCGGGGAAGAUGUAUUCUUCUCAUAAGAUAUAGUCGGACCUCUCCUUAAUGGGAGCUAGCGGAUGAAGUGAUGCAACACUGGAGCCGCUGGGAACUAAUUUGUAUGCGAAAGUAUAUUGAUUAGUUUUGGAGUACUCGUGGUCG
Outline: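 DiMSum derived fitness as the error-weighted combination of fold changes across replicates, kanamycin versus no kanamycin, normalised to wild type. E. coli BL21(DE3) held the library, which randomised all eight P1ex-region intron nucleotides within the knt kanamycin-resistance gene on pET-22b(+). Six replicate transformations grew overnight at 37°C or 30°C on LB agar with or without 25 μg/mL kanamycin, also containing 100 μg/mL carbenicillin, 50 μM IPTG and 0.2% rhamnose, and pooled colonies were amplicon-sequenced on an Illumina HiSeq 2500.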

| Sequence | self-splicing fitness (ln) (30 °C) | self-splicing fitness (ln) (37 °C) |
| --- | --- | --- |
| GUGCAGCAAUAUUACGUACU | -2.7 ± 0.39 | -0.869 ± 0.38 |
| UGCAAGCAAUAUUACGGUGU | -3.9 ± 0.23 | -2.92 ± 0.24 |
| UGACAGCAAUAUUACGACUC | -2.23 ± 0.17 | -0.483 ± 0.17 |
| CCCCAGCAAUAUUACGGGUA | -2.89 ± 0.11 | -1.25 ± 0.073 |
| UCGCAGCAAUAUUACGACAG | -2.6 ± 0.25 | -0.246 ± 0.35 |
| CGAUAGCAAUAUUACGGCUC | -2.44 ± 0.14 | -1.15 ± 0.17 |
| GCUUAGCAAUAUUACGGGUG | -0.826 ± 0.059 | -0.144 ± 0.075 |
| AAACAGCAAUAUUACGCUCG | -1.11 ± 0.083 | -0.7 ± 0.11 |
| CAGUAGCAAUAUUACGCCAU | -0.742 ± 0.18 | -2.87 ± 0.47 |
| GGUAAGCAAUAUUACGUCAA | -1.9 ± 0.26 | -1.62 ± 0.2 |
| UGCAAGCAAUAUUACGAAAC | – | -2.65 ± 0.36 |
| GGUAAGCAAUAUUACGAUUG | -3.48 ± 0.48 | -3.44 ± 0.39 |
| AAAAAGCAAUAUUACGAGCA | -0.699 ± 0.076 | -0.722 ± 0.091 |
| CCCCAGCAAUAUUACGUUAU | -4.15 ± 0.15 | -3.29 ± 0.22 |
| AUCCAGCAAUAUUACGUGCG | -1.65 ± 0.078 | -0.875 ± 0.076 |
| GGGAAGCAAUAUUACGCCCG | – | 0.0331 ± 0.36 |
| GAGCAGCAAUAUUACGAUUC | -0.868 ± 0.093 | -0.29 ± 0.14 |
| UGAUAGCAAUAUUACGGUUG | -0.902 ± 0.072 | 0.392 ± 0.11 |
| CGUGAGCAAUAUUACGCGGG | -1.74 ± 0.25 | – |
| CGGAAGCAAUAUUACGACCC | -0.496 ± 0.27 | -0.781 ± 0.33 |
| CCGCAGCAAUAUUACGUCGA | -1.06 ± 0.059 | -0.16 ± 0.069 |

| Sequence | self-splicing fitness (ln) (30 °C) | self-splicing fitness (ln) (37 °C) |
| --- | --- | --- |
| CCCUAGCAAUAUUACGUCGU | -3.42 ± 0.2 | -1.43 ± 0.19 |
| CUGGAGCAAUAUUACGGUGG | -3.55 ± 0.14 | -1.93 ± 0.12 |
| UGUGAGCAAUAUUACGGGUG | -2.6 ± 0.14 | -1.9 ± 0.13 |
| AUAUAGCAAUAUUACGAAUG | -1.77 ± 0.16 | -1.54 ± 0.18 |
| CCGAAGCAAUAUUACGAUGU | -3.33 ± 0.27 | -1.86 ± 0.15 |
| GCUCAGCAAUAUUACGAUCA | -0.7 ± 0.19 | -0.164 ± 0.17 |
| GUUGAGCAAUAUUACGGUCA | -1.81 ± 0.26 | -2.45 ± 0.29 |
| UCUGAGCAAUAUUACGGUUU | -3.14 ± 0.23 | -1.4 ± 0.24 |
| AAUAAGCAAUAUUACGUAAU | -1.38 ± 0.1 | -0.587 ± 0.13 |
| GCAUAGCAAUAUUACGUGCC | -3.42 ± 0.21 | -1.03 ± 0.29 |
| UUUGAGCAAUAUUACGUGAA | -1.97 ± 0.17 | -1.82 ± 0.17 |
| CCAAAGCAAUAUUACGGAGU | -2.7 ± 0.13 | -2.35 ± 0.2 |
| UGUUAGCAAUAUUACGUUUA | -1.78 ± 0.09 | -0.902 ± 0.098 |
| CCUUAGCAAUAUUACGCCCG | -1 ± 0.13 | -1.49 ± 0.21 |
| GUAGAGCAAUAUUACGCUUG | -0.837 ± 0.12 | -0.536 ± 0.19 |
| AUUGAGCAAUAUUACGGUUG | -3.28 ± 0.31 | -2.48 ± 0.29 |
| UCAGAGCAAUAUUACGAUGU | -1.87 ± 0.077 | -1.41 ± 0.093 |
| UGGCAGCAAUAUUACGGGUU | -3.09 ± 0.14 | -2.45 ± 0.14 |
| UAUAAGCAAUAUUACGGAGU | -3.46 ± 0.32 | -1.46 ± 0.2 |
| CUUAAGCAAUAUUACGUCCA | -2.93 ± 0.48 | -2.34 ± 0.46 |
| CUAGAGCAAUAUUACGGUGC | -3.31 ± 0.26 | -2.32 ± 0.37 |

| Sequence | self-splicing fitness (ln) (30 °C) | self-splicing fitness (ln) (37 °C) |
| --- | --- | --- |
| CGCCAGCAAUAUUACGGCAA | -0.604 ± 0.087 | -0.186 ± 0.088 |
| UAAUAGCAAUAUUACGAAGC | – | -1.83 ± 0.33 |
| AGAUAGCAAUAUUACGGGUA | -1.35 ± 0.11 | -1.8 ± 0.14 |
| ACAUAGCAAUAUUACGCGAC | -3.68 ± 0.42 | -0.813 ± 0.18 |
| GGGAAGCAAUAUUACGUGUC | -3.63 ± 0.24 | -2.28 ± 0.2 |
| AAGCAGCAAUAUUACGCUCC | -1.82 ± 0.16 | -0.511 ± 0.2 |
| UGGCAGCAAUAUUACGAACC | -1.66 ± 0.15 | -0.775 ± 0.2 |
| GGCGAGCAAUAUUACGCUGG | -1.39 ± 0.36 | – |
| AUAUAGCAAUAUUACGUCAA | -2.93 ± 0.25 | -2.06 ± 0.2 |
| CUAAAGCAAUAUUACGUCAC | -2.66 ± 0.14 | -2.62 ± 0.22 |
| CCUAAGCAAUAUUACGUUAU | -3.35 ± 0.17 | -2.85 ± 0.24 |
| UUCCAGCAAUAUUACGACGU | -2.06 ± 0.18 | -2.18 ± 0.2 |
| UUCCAGCAAUAUUACGAAAA | -0.987 ± 0.11 | 0.126 ± 0.11 |
| UGGAAGCAAUAUUACGAAGC | -3.64 ± 0.35 | -2.35 ± 0.36 |
| GCUAAGCAAUAUUACGGGCG | -0.341 ± 0.12 | 0.183 ± 0.14 |
| GAAUAGCAAUAUUACGGUCU | -0.677 ± 0.084 | -0.0473 ± 0.097 |
| UGCUAGCAAUAUUACGGCGA | -0.369 ± 0.22 | -0.302 ± 0.23 |
| ACGCAGCAAUAUUACGGAGC | – | -2.47 ± 0.26 |
| UGCAAGCAAUAUUACGAUAG | -1.09 ± 0.067 | -0.0803 ± 0.085 |
| AGUGAGCAAUAUUACGGCUU | -2.43 ± 0.17 | -1.72 ± 0.25 |
